The results in this text go back to publication PMC7806871 (Cell Death Discovery, 2021).

The target in the assay is T1, Tuberculosis necrotizing toxin (TNT), C-terminal domain of CpnT, recombinant TNT-His6x (M. tuberculosis, UniProt O05442 648-846).
T1 construct: not shown: His6, C-terminal, kept
T1 sequence: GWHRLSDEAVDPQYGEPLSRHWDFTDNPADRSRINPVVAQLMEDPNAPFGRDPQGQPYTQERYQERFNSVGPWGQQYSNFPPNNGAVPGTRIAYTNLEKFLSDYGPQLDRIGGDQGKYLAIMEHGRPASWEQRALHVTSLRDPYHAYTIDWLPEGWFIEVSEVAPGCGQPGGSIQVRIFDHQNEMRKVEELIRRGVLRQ
Put plainly: ELISA. The conditions noted are these: both partners purified. For orientation: An ELISA detects its analyte on a solid surface through an enzyme-linked reagent.

B1: Immunity factor for TNT (IFT), recombinant IFT-His6x (natural protein)
chain: TIGVDLSTDLQDWIRLSGMNMIQGSETNDGRTILWNKGGEVRYFIDRLAGWYVITSSDRMSREGYEFAAASMSVIEKYLYGYFGGSVRSERELPAIRAPFQPEELMPEYSIGTMTFAGRQRDTLIDSSGTVVAITAADRLVELSHYLDVSVNVIKDSFLDSEGKPLFTLWKDYKG
notes: not shown: His6, C-terminal, kept
Take B1: the binding result was “binds”.
